Source: US20210403582A1 (JACOBIO PHARMACEUTICALS, published 2021)
Where two headings read alike, the source gives them in different places.

Legend:
[1] = target: human IL-6 (human, UniProt P05231 30-212, limits assumed); assay: ELISA, human IL-6 coated at 1 µg/mL, A450
Description: (§1) The human LIF, human IL-6, human OSM, human CNTF (purchased from Sino biological) were coated on the enzyme label plate at a concentration of 1 μg/mL separately, and the anti-human LIF antibodies 38E10E1C11, P36-033 and 5D8 at different concentrations were added separately and incubated for 1 h at room temperature. Then the plates were washed four times with PBST and incubated with HRP-labeled goat anti-mouse FC secondary antibody for 1 h at room temperature. Then the plates were washed four times with PBST and added with TMB colored solution for color development at room temperature for 10 minutes. The absorption value at 450 nm is quantitated by the enzyme-labeling measuring instrument, and the data was analyzed and plotted using Origin pro 9 software.

[2] = target: T1, human OSM (human, UniProt P13725 26-221, limits assumed); assay: ELISA, human OSM coated at 1 µg/mL, A450
T1 sequence (looked up): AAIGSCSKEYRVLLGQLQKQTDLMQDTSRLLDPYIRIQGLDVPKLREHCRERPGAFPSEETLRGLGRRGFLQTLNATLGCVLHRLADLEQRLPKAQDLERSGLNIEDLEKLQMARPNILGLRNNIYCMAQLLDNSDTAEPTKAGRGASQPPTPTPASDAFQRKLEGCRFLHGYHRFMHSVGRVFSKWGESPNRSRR
Description: as §1

[3] = target: T2, human LIF protein (human, UniProt P15018 23-202); assay: competition ELISA: human LIF coated at 1 µg/mL, GP130-Fc 20 µg/mL added together with the antibody, A450
T2 construct: Bought recombinant protein (Sino Biological / Yiqiao Shenzhou 14890-HNAH) in most assays; also called recombinant human LIF protein; rhLIF
Description: The recombinant human LIF protein was coated on the enzyme label plates at a concentration of 1 μg/mL, GP130 protein (expressed fusedly with human FC) at a concentration of 20 μg/mL was added (50 μL/well), and the anti-human LIF antibodies P36-033 and 38E10E1C11 at different concentrations simultaneously were added separately (50 μL/well), and incubated for 2 h at room temperature. At the same time, the control wells added with antibodies and without GP130 protein were set. Incubated for 2 h at room temperature. After washed four times with PBST, incubated with HRP-labeled goat anti-mouse FC secondary antibody for 1 h at room temperature. Then the plates were washed four times with PBST and added with TMB coloured solution in for 10 minutes. The absorption value at 450 nm is quantitated using an enzyme-labelling measuring instrument, and the data was analyzed and plotted using Origin pro 9 software.

[4] = target: T2, human LIF protein; assay: competition ELISA: human LIF coated at 1 µg/mL, GP130-Fc 12 µg/mL added together with the antibody, HRP anti-human Fc, A450
[5] = target: T3, human CNTF (human, UniProt P26441 1-200, limits assumed); assay: ELISA, human CNTF coated at 1 µg/mL, A450
T3 sequence (looked up): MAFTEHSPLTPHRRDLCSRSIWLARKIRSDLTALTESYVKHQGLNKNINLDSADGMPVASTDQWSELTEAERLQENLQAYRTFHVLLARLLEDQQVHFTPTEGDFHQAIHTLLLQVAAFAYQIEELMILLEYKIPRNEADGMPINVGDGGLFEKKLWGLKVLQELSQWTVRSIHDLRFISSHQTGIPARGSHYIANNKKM
Description: as §1

[6] = target: T2, human LIF protein; assay: ELISA, human LIF coated at 1 µg/mL, A450
Description: (§2) The recombinant human LIF protein was diluted to 1 μg/mL, was coated on the enzyme label plate, 100 μL of the protein was added into every well, and incubated overnight in 4° C. The enzyme label plates were taken out next day, and the liquid was discarded, and were washed with PBST three times and blocked with 2% BSA in PBS for 1 h at room temperature, then washed with PBST three times, and added anti-human LIF antibodies 38E10E1C11, 5D8 and P36-033 at different concentrations and incubated for 1 h at room temperature. The liquid was discarded, and the plates were washed with PBST four times. The plates were added with HRP-labeled goat anti-mouse Fab antibody or goat anti-human FC antibody and incubated for 1 h at room temperature. Then the liquid was discarded, and the plates were washed four times with PBST and incubated with TMB colored solution in 10 minutes at room temperature. Stop color development by adding 2 mol/L H₂SO₄, and the absorption value at 450 nm is quantitated using an automated plate photometer, and the results were shown in FIG. 1.

[7] = target: T4, recombinant mouse LIF protein (mouse, UniProt P09056 24-203); assay: ELISA, mouse LIF coated at 1 µg/mL, A450
Description: (§3) The recombinant mouse LIF protein (purchased from ACRO Biosystems) was diluted to 1 μg/mL, and was coated on the enzyme label plate, 100 μL of protein was added into every well, and incubated overnight in 4° C. The enzyme label plates were taken out next day, and the liquid was discarded, and were washed with PBST three times and blocked with 2% BSA in PBS for 1 h at room temperature, then washed with PBST three times, and added anti-human LIF antibodies 38E10E1C11, 5D8 and P36-033 at different concentrations and incubated for 1 h at room temperature. The liquid was discarded, and the plates were washed with PBST four times. The plates were added with HRP-labeled goat anti-mouse Fab antibody or goat anti-human FC antibody and incubated for 1 h at room temperature. Then the liquid was discarded, and the plates were washed four times with PBST and incubated with TMB colored solution in 10 minutes at room temperature. Stop color development by adding 2 mol/L H₂SO₄, and the absorption value at 450 nm is quantitated using an automated plate photometer, and the results were shown in FIG. 2.

[8] = target: T1, human OSM; assay: ELISA, human OSM coated at 1 µg/mL, A450, bar chart of eight antibody concentrations
Description: as §1

[9] = target: T3, human CNTF; assay: ELISA, human CNTF coated at 1 µg/mL, A450, bar chart of eight antibody concentrations
Description: as §1

[10] = target: T4, recombinant mouse LIF protein; assay: ELISA, mouse LIF coated at 1 µg/mL, A450; remark: listed apart in the source
Description: as §3

[11] = target: T2, human LIF protein; assay: ELISA, human LIF coated at 1 µg/mL, A450; remark: listed apart in the source
Description: as §2

T2 sequence (P15018 23-202 limits assumed): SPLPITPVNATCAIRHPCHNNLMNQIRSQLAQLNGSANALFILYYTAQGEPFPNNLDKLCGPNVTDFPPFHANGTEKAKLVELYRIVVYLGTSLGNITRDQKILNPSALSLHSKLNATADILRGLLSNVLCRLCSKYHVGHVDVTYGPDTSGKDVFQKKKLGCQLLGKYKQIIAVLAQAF
human IL-6, sequence (P05231 30-212 limits assumed): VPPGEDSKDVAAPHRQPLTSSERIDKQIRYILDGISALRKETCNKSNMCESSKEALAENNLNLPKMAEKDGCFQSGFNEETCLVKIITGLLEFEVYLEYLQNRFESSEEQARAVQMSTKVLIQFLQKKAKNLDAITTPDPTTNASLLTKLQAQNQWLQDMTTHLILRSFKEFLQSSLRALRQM

Binder	binding result [1]	binding result [2]	IC50 (read off the curve) [3]	IC50 (read off the curve) [4]	binding result [5]	EC50 (read off the curve) [6]	binding result [7]	binding result [8]	binding result [9]	EC50 (read off the curve) [10]	EC50 (read off the curve) [7]	EC50 (read off the curve) [11]
P36-033 antibody (antibody, mouse IgG1, kappa, V domains shown, From a phage display library of immunised mice; full-length chains with mouse constant regions; also called P36-033 mAb) VH: EVMLVESGGGLVQPGGSRRLSCAASGFTFSSYPMFWVRQTPEKRMEWVAYISNGGDSTYYPDTVKGRFTVSRDNAKNTLYLQMSSLKSVDTAIYYCVRPSARYDEWFAYWGQGTLVTVSA VL: DIVMTQSHKFMSTSVGDRVSITCKASQDVSNAVAWYQQKPGQSPRLLIYWASFRHTGVPDRFTGSGSGTEYTLTISRVQAEDLALYYCQQHYNTPYTFGGGTRLEIKR	no binding (tested: 25 ug/ml)	no binding (tested: 25 ug/ml)	~0.1 µg/mL	~0.1 µg/mL	no binding (tested: 25 ug/ml)	~0.05 µg/mL	binds	–	–	–	–	–
5D8 antibody (positive control) (antibody, human IgG1, kappa, V domains shown) VH: QVQLQESGGGLVKPGGSLRLSCAASGFTFSHAWMHWVRQAPGKGLEWVGQIKAKSDDYATYYAESVKGRFTISRDDSKNTLYLQMNSLKTEDTAVYYCTCWEWDLDFWGQGTMVTVSS VL: DIVMTQTPLSSPVTLGQPASISCRSSQSLLDSDGHTYLNWLQQRPGQPPRLLIYSVSNLESGVPDRFSGSGAGTDFTLKISRVEAEDVGVYYCMQATHAPPYTFGQGTKLEIKR	–	–	–	–	–	~0.8 µg/mL	–	binds	binds	~0.3 µg/mL	~0.4 µg/mL	~0.2 µg/mL
